Measured values: patent US10716826B2, “Compositions for overcoming anti-cancer drug-resistance or compositions for anti-cancer activity employing CAGE-derived peptides” (L-Base Co., Ltd., priority 2015, dated 2020)
“Also recorded” adds a separate entry of the source.

Tests used:
[1] = test system: tumor from Malme3MR, SNU38R cell strains; experiment: tumor generation in immunodeficiency mouse, peptide injected into tail vein; assay type: in vivo; details: 5 times in total every 3 days for 2 weeks
Procedure: If a tumor grew up to a size enough to be measured, a digital gauge was used to a size of the tumor in a uniform interval and the tumor size was calculated by a known equation (the widest length [the shortest length]^2×0.5). After inducing a tumor in the same manner, taxol was injected into a vein of the mouse's tail for inspection to tumor generation and anticancer drug resistance.
To inspect an affection of GKGKT peptide to tumor generation, after injecting high-CAGE melanoma and liver-cancer cell strains (Malme3MR, SNU38R) into the side abdomen of an immunodeficiency mouse by a known method and then inducing a tumor, the GTGKT peptide was injected into a vein of the mouse's tail 5 times in total every 3 days for 2 weeks and a size variation of the tumor was examined. As a result, it could be seen from FIG. 8A that the GTGKT peptide reduced a size of the tumor due to the cancer cell strains.

CAGE = molecular target: T1, CAGE (Homo sapiens, UniProt Q86TM3); experiment: binding of peptide to CAGE in anticancer drug-resistance cell strains
T1 construct: endogenous in cells; host or cells: anticancer drug-resistance cell strains (Malme3M^R, SNU387^R)
T1 sequence (Q86TM3 whole entry): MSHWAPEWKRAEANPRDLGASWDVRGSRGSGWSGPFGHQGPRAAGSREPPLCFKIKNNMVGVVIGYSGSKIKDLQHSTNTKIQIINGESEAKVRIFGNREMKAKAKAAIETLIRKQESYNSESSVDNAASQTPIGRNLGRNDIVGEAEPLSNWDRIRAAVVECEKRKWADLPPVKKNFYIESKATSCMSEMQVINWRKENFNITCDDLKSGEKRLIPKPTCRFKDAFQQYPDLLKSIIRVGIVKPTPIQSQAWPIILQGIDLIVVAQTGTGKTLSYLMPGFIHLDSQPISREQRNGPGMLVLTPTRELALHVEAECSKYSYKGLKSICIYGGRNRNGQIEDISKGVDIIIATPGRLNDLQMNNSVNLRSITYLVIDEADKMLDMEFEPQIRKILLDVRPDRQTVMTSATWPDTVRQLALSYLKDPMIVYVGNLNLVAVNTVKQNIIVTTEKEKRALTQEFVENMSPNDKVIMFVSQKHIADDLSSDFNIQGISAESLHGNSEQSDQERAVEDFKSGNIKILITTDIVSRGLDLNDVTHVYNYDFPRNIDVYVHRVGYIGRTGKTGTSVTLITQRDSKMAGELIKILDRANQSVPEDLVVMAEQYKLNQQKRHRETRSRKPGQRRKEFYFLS

CAGE-GSK3β inter-binding [2] = molecular target: T2, CAGE-GSK3β inter-binding (Homo sapiens, UniProt Q86TM3); experiment: Western blot and immunoprecipitation in celastrol-resistance cell strains; assay type: cell-based; parameters: endogenous in cells; host or cells: Malme3M^R-Taxol (A2); Malme3M^R, SNU387^R (printed SNU3SM^R/SNU38^R), AGS^R (A3); details: for expression level of Cyclin D1 / inter-binding between CAGE and GSK3β proteins: celastrol-resistance cell strains (melanoma, liver cancer, gastric cancer)
T2 sequence (Q86TM3 whole entry): as above
Procedure: (§1) To confirm an affection of CAGE-derived oligopeptide to the interbinding and GSK3β Ser9 phosphorylation of a CAGE, a GTGKT (Sequence No.1) peptide and a specific-residue deleted and mutated peptide based on the GTGKT peptide were prepared and, after collecting proteins by a known method after transfection into respective cell stains, the Western blot and the immunoprecipitation were preformed to inspect an anticancer drug-resistance induction mechanism of the CAGE. GTGKT includes ATP binding sites of CAGE (the right panel of FIG. 3A).

[3] = test system: Malme3M^R, SNU38M^R cell strains; experiment: apoptosis against an anticancer drug (FAK and PARP cleavage, Western blot); assay type: cell-based; details: melanoma and liver cancer cell strains
[4] = molecular target: reassociated CAGE protein (Homo sapiens, UniProt Q86TM3); experiment: in vitro kinase assay: phosphorylation of GSK3β Ser9 peptide by reassociated CAGE protein; assay type: biochemical; details: RTTSFAE peptide as substrate
Chain of reassociated CAGE protein (Q86TM3 whole entry): as above
Procedure: A GSK3β-described peptide RTTSFAE including GSK3β Ser9 residues was prepared for a temperament (the left panel of FIG. 3A) and phosphorylation of the GSK3β Ser9 residues by a reassociated CAGE protein was confirmed through an in vitro kinase assay by using the RTTSFAE peptide as the temperament (the left panel of FIG. 4B).

CAGE-GSK3β inter-binding [5] = molecular target: T2, CAGE-GSK3β inter-binding; experiment: Western blot and immunoprecipitation in taxol-resistance melanoma cell strain; assay type: cell-based; parameters: endogenous in cells; host or cells: Malme3M^R-Taxol (A2); Malme3M^R, SNU387^R (printed SNU3SM^R/SNU38^R), AGS^R (A3); details: Malme3M^R-Taxol; for CAGE-GSK3β inter-binding: immunoprecipitation
Procedure: as §1
To examine residues necessary for anticancer activity of a GTGKT peptide, after preparing a peptide for which the 273′rd Thr residue is deleted (GTGK) or substituted (GTGKA, sequence No. 2) with Ala in CAFE, and preparing a peptide for which the 272′nd […] residue is substituted (GTGRT) with Arg, the same manner was performed.

CAGE-GSK3β inter-binding [6] = molecular target: T2, CAGE-GSK3β inter-binding; experiment: Western blot and immunoprecipitation of tumor tissue after the mouse experiment; assay type: in vivo; parameters: from tissue; host or cells: xenograft tumour tissue from Malme3M^R / SNU387^R cells in immunodeficiency mouse
Text: After finishing the experiment, a protein was collected from the tumor tissue through a known method, and then activity of protein expression and an inter-binding state were conformed through the Western blot and the immunoprecipitation.

[7] = test system: Malme3M^R, SNU38M^R, AGS^R cell strains; experiment: MTT assay of anticancer drug resistance; assay type: cell-based; details: celastrol-resistance cell strains
Procedure: To confirm anticancer activity of a GTGKT-based oligopeptide, the MIT assay and the western blot according to a known method was performed using an immunodeficiency mouse. Then, it could be seen how the GKCKT-based oligopeptide affected tumor generation.
After transfecting a GTGKT peptide into melanoma, liver-cancer, and gastric-cancer cell strains (Malme3M^R, SNU38M^R, AGS^R) by concentration, anticancer drug resistance was inspected through the MTT assay.

GTGKT (CAGE-derived peptide)
size of the tumor [1]: reduced | binding to CAGE (CAGE): bound specifically | phosphorylation state of GSK3β Ser9 (CAGE-GSK3β inter-binding [2]; Malme3M^R, SNU38^R treated with peptide): suppressed dephosphorylation | expression level of Cyclin D1 (CAGE-GSK3β inter-binding [2]): control an expression level of Cyclin D1; also recorded: suppressed | inter-binding between CAGE and GSK3β proteins (CAGE-GSK3β inter-binding [2]): suppress; also recorded: hindered | apoptosis against an anticancer drug [3]: induced apoptosis | phosphorylation of GSK3β Ser9 residues due to the reassociated CAGE protein [4]: suppressed in phosphorylation | phosphorylation of GSK3β Ser9 residues due to the reassociated CAGE protein ([4]; listed as GTCKT): suppressed | phosphorylation of GSK3β Ser9 residues (CAGE-GSK3β inter-binding [5]; Western blot): suppress | protein accumulation / expression level of Cyclin D1 (CAGE-GSK3β inter-binding [5]; Western blot): suppress | CAGE-GSK3β inter-binding (CAGE-GSK3β inter-binding [5]): hindered | expression of MDR1 in tumor tissue (CAGE-GSK3β inter-binding [6]; Western blot): reduced | phosphorylation state of GSK3β Ser9 in tumor tissue (CAGE-GSK3β inter-binding [6]; Western blot): dephosphorylation | protein expression of Cyclin D1 in tumor tissue (CAGE-GSK3β inter-binding [6]; Western blot): decrease | inter-binding between CAGE and GSK3β proteins in tumor tissue (CAGE-GSK3β inter-binding [6]; immunoprecipitation): suppressed | anticancer drug resistance [7]: suppressed

GTGKA (CAGE-derived peptide) [GTGKT peptide in which the 273rd Thr residue is substituted with Ala]
expression level of Cyclin D1 (CAGE-GSK3β inter-binding [2]): control an expression level of Cyclin D1 | inter-binding between CAGE and GSK3β proteins (CAGE-GSK3β inter-binding [2]): suppress | apoptosis against an anticancer drug [3]: induced cell apoptosis | protein accumulation / expression level of Cyclin D1 (CAGE-GSK3β inter-binding [5]; Western blot): control an expression level of Cyclin D1 | CAGE-GSK3β inter-binding (CAGE-GSK3β inter-binding [5]): suppressed
